For this test, the target named is Recombinant human IL-1β (BioLegend 579404) (human, UniProt P01584 117-269). Briefly: cell-based or functional assay.

*1 amine or outer side, *2 acyl side, *3 side chain or, on linkers, in order; H or OH if unused. [ ]: non-standard residue; d: D form. TyrEtNAc = L-tyrosine O-ethyl acetamide, (S)-3-(4-(2-acetamidoethoxy)phenyl)-2-aminopropanoic acid, CC(=O)NCCOc1ccc(C[C@H](N[*:1])C(=O)[*:2])cc1; Trp(4-Cl)(βS-Me) = C[C@@H](c1c[nH]c2cccc(Cl)c12)[C@H](N)C(=O)O; Pro(trans-4-NH2) = O=C([C@@H]1C[C@@H](N[*:3])CN1[*:1])[*:2]; Bip(4'-COOH) = N[C@@H](Cc1ccc(-c2ccc(C(=O)O)cc2)cc1)C(=O)O; 1Nal(3S-Me) = C[C@@H](c1cccc2ccccc12)[C@H](N)C(=O)O; Phe(4-COOH) = N[C@@H](Cc1ccc(C(=O)O)cc1)C(=O)O; h3Pal(5-CN) = N#Cc1cncc(CC[C@H](N)C(=O)O)c1; Phe(4-NH2) = Nc1ccc(C[C@H](N)C(=O)O)cc1; 1Nal = N[C@@H](Cc1cccc2ccccc12)C(=O)O; hTyr = N[C@@H](CCc1ccc(O)cc1)C(=O)O; 4Pal = N[C@@H](Cc1ccncc1)C(=O)O; dDab = NCC[C@@H](N)C(=O)O; Orn = NCCC[C@H](N)C(=O)O; dNMeA = CN[C@H](C)C(=O)O; Dab = NCC[C@H](N)C(=O)O; Dap = NC[C@H](N)C(=O)O; Aib = CC(C)(N)C(=O)O

B1: SEQ ID NO: 130 (Example No. 130) (peptide)
peptide: cyclo([TyrEtNAc]W[Phe(4-COOH)]G[Pro(trans-4-NH2)][Trp(4-Cl)(βS-Me)]D[dNMeA]G[Bip(4'-COOH)][1Nal][Dap][Aib][h3Pal(5-CN)])
SMILES: CC(=O)NCCOc1ccc(C[C@@H]2NC(=O)[C@H](CCc3cncc(C#N)c3)NC(=O)C(C)(C)NC(=O)[C@H](CN)NC(=O)[C@H](Cc3cccc4ccccc34)NC(=O)[C@H](Cc3ccc(-c4ccc(C(=O)O)cc4)cc3)NC(=O)CNC(=O)[C@@H](C)N(C)C(=O)[C@H](CC(=O)O)NC(=O)[C@H]([C@@H](C)c3c[nH]c4cccc(Cl)c34)NC(=O)[C@@H]3C[C@@H](N)CN3C(=O)CNC(=O)[C@H](Cc3ccc(C(=O)O)cc3)NC(=O)[C@H](Cc3c[nH]c4ccccc34)NC2=O)cc1
In the case of B1, the “MRC5 IC50” value stood at 0.114 nM.

B2: SEQ ID NO: 125 (Example No. 125) (peptide)
peptide: cyclo([TyrEtNAc]W[Phe(4-COOH)]G[Pro(trans-4-NH2)][1Nal(3S-Me)]D[dNMeA]G[Bip(4'-COOH)]WL[dA][hTyr])
SMILES: CC(=O)NCCOc1ccc(C[C@@H]2NC(=O)[C@H](CCc3ccc(O)cc3)NC(=O)[C@@H](C)NC(=O)[C@H](CC(C)C)NC(=O)[C@H](Cc3c[nH]c4ccccc34)NC(=O)[C@H](Cc3ccc(-c4ccc(C(=O)O)cc4)cc3)NC(=O)CNC(=O)[C@@H](C)N(C)C(=O)[C@H](CC(=O)O)NC(=O)[C@H]([C@@H](C)c3cccc4ccccc34)NC(=O)[C@@H]3C[C@@H](N)CN3C(=O)CNC(=O)[C@H](Cc3ccc(C(=O)O)cc3)NC(=O)[C@H](Cc3c[nH]c4ccccc34)NC2=O)cc1
Turning to B2, the “MRC5 IC50” value was determined as 0.064 nM.

B3: SEQ ID NO: 123 (Example No. 123) (peptide)
peptide: cyclo([TyrEtNAc]W[Phe(4-COOH)]G[Pro(trans-4-NH2)][1Nal(3S-Me)]D[dNMeA]G[Bip(4'-COOH)]WG[dDab][hTyr])
SMILES: CC(=O)NCCOc1ccc(C[C@@H]2NC(=O)[C@H](CCc3ccc(O)cc3)NC(=O)[C@@H](CCN)NC(=O)CNC(=O)[C@H](Cc3c[nH]c4ccccc34)NC(=O)[C@H](Cc3ccc(-c4ccc(C(=O)O)cc4)cc3)NC(=O)CNC(=O)[C@@H](C)N(C)C(=O)[C@H](CC(=O)O)NC(=O)[C@H]([C@@H](C)c3cccc4ccccc34)NC(=O)[C@@H]3C[C@@H](N)CN3C(=O)CNC(=O)[C@H](Cc3ccc(C(=O)O)cc3)NC(=O)[C@H](Cc3c[nH]c4ccccc34)NC2=O)cc1
As to B3, the “MRC5 IC50” value stood at 0.0457 nM.

B4: SEQ ID NO: 133 (Example No. 133) (peptide)
peptide: cyclo([TyrEtNAc]W[Phe(4-COOH)]G[Pro(trans-4-NH2)][Trp(4-Cl)(βS-Me)]D[dNMeA]G[Bip(4'-COOH)][1Nal]S[dA][Phe(4-NH2)])
SMILES: CC(=O)NCCOc1ccc(C[C@@H]2NC(=O)[C@H](Cc3ccc(N)cc3)NC(=O)[C@@H](C)NC(=O)[C@H](CO)NC(=O)[C@H](Cc3cccc4ccccc34)NC(=O)[C@H](Cc3ccc(-c4ccc(C(=O)O)cc4)cc3)NC(=O)CNC(=O)[C@@H](C)N(C)C(=O)[C@H](CC(=O)O)NC(=O)[C@H]([C@@H](C)c3c[nH]c4cccc(Cl)c34)NC(=O)[C@@H]3C[C@@H](N)CN3C(=O)CNC(=O)[C@H](Cc3ccc(C(=O)O)cc3)NC(=O)[C@H](Cc3c[nH]c4ccccc34)NC2=O)cc1
For the molecule B4, the “MRC5 IC50” value came to 0.766 nM.

B5: SEQ ID NO: 131 (Example No. 131) (peptide)
peptide: cyclo([TyrEtNAc]W[Phe(4-COOH)]G[Pro(trans-4-NH2)][Trp(4-Cl)(βS-Me)]D[dNMeA]G[Bip(4'-COOH)][1Nal]L[dA][hTyr])
SMILES: CC(=O)NCCOc1ccc(C[C@@H]2NC(=O)[C@H](CCc3ccc(O)cc3)NC(=O)[C@@H](C)NC(=O)[C@H](CC(C)C)NC(=O)[C@H](Cc3cccc4ccccc34)NC(=O)[C@H](Cc3ccc(-c4ccc(C(=O)O)cc4)cc3)NC(=O)CNC(=O)[C@@H](C)N(C)C(=O)[C@H](CC(=O)O)NC(=O)[C@H]([C@@H](C)c3c[nH]c4cccc(Cl)c34)NC(=O)[C@@H]3C[C@@H](N)CN3C(=O)CNC(=O)[C@H](Cc3ccc(C(=O)O)cc3)NC(=O)[C@H](Cc3c[nH]c4ccccc34)NC2=O)cc1
For B5, the “MRC5 IC50” value is 0.0498 nM.

B6: SEQ ID NO: 132 (Example No. 132) (peptide)
peptide: cyclo([TyrEtNAc]W[Phe(4-COOH)]G[Pro(trans-4-NH2)][Trp(4-Cl)(βS-Me)]D[dNMeA]G[Bip(4'-COOH)][1Nal][Orn][Aib]G)
SMILES: CC(=O)NCCOc1ccc(C[C@@H]2NC(=O)CNC(=O)C(C)(C)NC(=O)[C@H](CCCN)NC(=O)[C@H](Cc3cccc4ccccc34)NC(=O)[C@H](Cc3ccc(-c4ccc(C(=O)O)cc4)cc3)NC(=O)CNC(=O)[C@@H](C)N(C)C(=O)[C@H](CC(=O)O)NC(=O)[C@H]([C@@H](C)c3c[nH]c4cccc(Cl)c34)NC(=O)[C@@H]3C[C@@H](N)CN3C(=O)CNC(=O)[C@H](Cc3ccc(C(=O)O)cc3)NC(=O)[C@H](Cc3c[nH]c4ccccc34)NC2=O)cc1
Turning to B6, the “MRC5 IC50” value is 0.37 nM.

B7: SEQ ID NO: 128 (Example No. 128) (peptide)
peptide: cyclo([TyrEtNAc]W[Phe(4-COOH)]G[Pro(trans-4-NH2)][1Nal(3S-Me)]D[dNMeA]G[Bip(4'-COOH)]WS[dA][hTyr])
SMILES: CC(=O)NCCOc1ccc(C[C@@H]2NC(=O)[C@H](CCc3ccc(O)cc3)NC(=O)[C@@H](C)NC(=O)[C@H](CO)NC(=O)[C@H](Cc3c[nH]c4ccccc34)NC(=O)[C@H](Cc3ccc(-c4ccc(C(=O)O)cc4)cc3)NC(=O)CNC(=O)[C@@H](C)N(C)C(=O)[C@H](CC(=O)O)NC(=O)[C@H]([C@@H](C)c3cccc4ccccc34)NC(=O)[C@@H]3C[C@@H](N)CN3C(=O)CNC(=O)[C@H](Cc3ccc(C(=O)O)cc3)NC(=O)[C@H](Cc3c[nH]c4ccccc34)NC2=O)cc1
For the molecule B7, the “MRC5 IC50” value stood at 0.09 nM.

B8: SEQ ID NO: 127 (Example No. 127) (peptide)
peptide: cyclo([TyrEtNAc]W[Phe(4-COOH)]G[Pro(trans-4-NH2)][1Nal(3S-Me)]D[dNMeA]G[Bip(4'-COOH)]W[Orn][Aib][hTyr])
SMILES: CC(=O)NCCOc1ccc(C[C@@H]2NC(=O)[C@H](CCc3ccc(O)cc3)NC(=O)C(C)(C)NC(=O)[C@H](CCCN)NC(=O)[C@H](Cc3c[nH]c4ccccc34)NC(=O)[C@H](Cc3ccc(-c4ccc(C(=O)O)cc4)cc3)NC(=O)CNC(=O)[C@@H](C)N(C)C(=O)[C@H](CC(=O)O)NC(=O)[C@H]([C@@H](C)c3cccc4ccccc34)NC(=O)[C@@H]3C[C@@H](N)CN3C(=O)CNC(=O)[C@H](Cc3ccc(C(=O)O)cc3)NC(=O)[C@H](Cc3c[nH]c4ccccc34)NC2=O)cc1
As for B8, the “MRC5 IC50” value was found to be 0.432 nM.

B9: SEQ ID NO: 124 (Example No. 124) (peptide)
peptide: cyclo([TyrEtNAc]W[Phe(4-COOH)]G[Pro(trans-4-NH2)][1Nal(3S-Me)]D[dNMeA]G[Bip(4'-COOH)]WL[dA]A)
SMILES: CC(=O)NCCOc1ccc(C[C@@H]2NC(=O)[C@H](C)NC(=O)[C@@H](C)NC(=O)[C@H](CC(C)C)NC(=O)[C@H](Cc3c[nH]c4ccccc34)NC(=O)[C@H](Cc3ccc(-c4ccc(C(=O)O)cc4)cc3)NC(=O)CNC(=O)[C@@H](C)N(C)C(=O)[C@H](CC(=O)O)NC(=O)[C@H]([C@@H](C)c3cccc4ccccc34)NC(=O)[C@@H]3C[C@@H](N)CN3C(=O)CNC(=O)[C@H](Cc3ccc(C(=O)O)cc3)NC(=O)[C@H](Cc3c[nH]c4ccccc34)NC2=O)cc1
With B9, the “MRC5 IC50” value turned out to be 0.636 nM.

B10: SEQ ID NO: 126 (Example No. 126) (peptide)
peptide: cyclo([TyrEtNAc]W[Phe(4-COOH)]G[Pro(trans-4-NH2)][1Nal(3S-Me)]D[dNMeA]G[Bip(4'-COOH)]WL[dDab][hTyr])
SMILES: CC(=O)NCCOc1ccc(C[C@@H]2NC(=O)[C@H](CCc3ccc(O)cc3)NC(=O)[C@@H](CCN)NC(=O)[C@H](CC(C)C)NC(=O)[C@H](Cc3c[nH]c4ccccc34)NC(=O)[C@H](Cc3ccc(-c4ccc(C(=O)O)cc4)cc3)NC(=O)CNC(=O)[C@@H](C)N(C)C(=O)[C@H](CC(=O)O)NC(=O)[C@H]([C@@H](C)c3cccc4ccccc34)NC(=O)[C@@H]3C[C@@H](N)CN3C(=O)CNC(=O)[C@H](Cc3ccc(C(=O)O)cc3)NC(=O)[C@H](Cc3c[nH]c4ccccc34)NC2=O)cc1
On to B10, for which the “MRC5 IC50” value is 0.37 nM.

B11: SEQ ID NO: 134 (Example No. 134) (peptide)
peptide: cyclo([TyrEtNAc]W[Phe(4-COOH)]G[Pro(trans-4-NH2)][Trp(4-Cl)(βS-Me)]D[dNMeA]G[Bip(4'-COOH)][4Pal][Dab][dA][hTyr])
SMILES: CC(=O)NCCOc1ccc(C[C@@H]2NC(=O)[C@H](CCc3ccc(O)cc3)NC(=O)[C@@H](C)NC(=O)[C@H](CCN)NC(=O)[C@H](Cc3ccncc3)NC(=O)[C@H](Cc3ccc(-c4ccc(C(=O)O)cc4)cc3)NC(=O)CNC(=O)[C@@H](C)N(C)C(=O)[C@H](CC(=O)O)NC(=O)[C@H]([C@@H](C)c3c[nH]c4cccc(Cl)c34)NC(=O)[C@@H]3C[C@@H](N)CN3C(=O)CNC(=O)[C@H](Cc3ccc(C(=O)O)cc3)NC(=O)[C@H](Cc3c[nH]c4ccccc34)NC2=O)cc1
Turning to B11, the “MRC5 IC50” value was 0.379 nM.

B12: SEQ ID NO: 129 (Example No. 129) (peptide)
peptide: cyclo([TyrEtNAc]W[Phe(4-COOH)]G[Pro(trans-4-NH2)][1Nal(3S-Me)]N[dNMeA]G[Bip(4'-COOH)]W[Dap][dA][hTyr])
SMILES: CC(=O)NCCOc1ccc(C[C@@H]2NC(=O)[C@H](CCc3ccc(O)cc3)NC(=O)[C@@H](C)NC(=O)[C@H](CN)NC(=O)[C@H](Cc3c[nH]c4ccccc34)NC(=O)[C@H](Cc3ccc(-c4ccc(C(=O)O)cc4)cc3)NC(=O)CNC(=O)[C@@H](C)N(C)C(=O)[C@H](CC(N)=O)NC(=O)[C@H]([C@@H](C)c3cccc4ccccc34)NC(=O)[C@@H]3C[C@@H](N)CN3C(=O)CNC(=O)[C@H](Cc3ccc(C(=O)O)cc3)NC(=O)[C@H](Cc3c[nH]c4ccccc34)NC2=O)cc1
On to B12, for which the “MRC5 IC50” value amounted to 0.0828 nM.
